According to paper PMC11303406:

Assays:
[1] = system: SlSWIBb-L44A (Solanum lycopersicum); assay: MST; details: MST: 50 mM Tris-HCl pH 8.0, 150 mM NaCl, 0.05% Tween-20, 25 C
[2] = system: SlSWIBb-R6A (Solanum lycopersicum); assay: MST; details: MST: 50 mM Tris-HCl pH 8.0, 150 mM NaCl, 0.05% Tween-20, 25 C
[3] = system: SlSWIBb (Solanum lycopersicum); assay: MST; details: MST: 50 mM Tris-HCl pH 8.0, 150 mM NaCl, 0.05% Tween-20, 25 C
[4] = system: SlSWIBb-K86A (Solanum lycopersicum); assay: MST; details: MST: 50 mM Tris-HCl pH 8.0, 150 mM NaCl, 0.05% Tween-20, 25 C
SlGATA29 = molecular target: T1, SlGATA29 (Solanum lycopersicum, UniProt UPI0002BCBC7B 34-326); assay: EMSA
T1 sequence: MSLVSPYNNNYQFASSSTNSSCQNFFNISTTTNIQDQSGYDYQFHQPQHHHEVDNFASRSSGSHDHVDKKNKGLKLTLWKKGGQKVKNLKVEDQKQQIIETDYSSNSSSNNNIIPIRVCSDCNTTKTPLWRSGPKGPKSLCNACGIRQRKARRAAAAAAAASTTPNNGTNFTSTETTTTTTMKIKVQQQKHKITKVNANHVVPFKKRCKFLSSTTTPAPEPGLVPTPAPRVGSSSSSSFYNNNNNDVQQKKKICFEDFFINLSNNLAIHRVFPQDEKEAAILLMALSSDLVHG

SlSWIBa-allmut = SlSWIBa-allmut (Solanum lycopersicum, UniProt A0A3Q7HR54 1-124, R6A;L46A;K88A); assay: MST
SlSWIBa = SlSWIBa (Solanum lycopersicum, UniProt A0A3Q7HR54 1-124); assay: EMSA

“GAATATATGAACATATTAAAAGTGACATTATAAGAAATGATAAAATTCAAAATTAAGGTG (double strand) [60bp InDel, Cy5]” gave a Kd [1] of 0.047 µM, a Kd [2] of 0.04 µM and a Kd [3] of 0.035 µM. For the same molecule, the Kd [4] was 0.042 µM.

B1: probe-60bp (dsDNA)
DNA 1: GAATATATGAACATATTAAAAGTGACATTATAAGAAATGATAAAATTCAAAATTAAGGTG
DNA 2: CACCTTAATTTTGAATTTTATCATTTCTTATAATGTCACTTTTAATATGTTCATATATTC
B1: binds (SlGATA29).

B2: 60bp InDel, Cy5 (dsDNA)
DNA 1: B1 DNA 1
DNA 2: B1 DNA 2
B2: no binding (SlSWIBa-allmut).

B3: 30bpSWIB-mu4 (dsDNA)
DNA 1: TAAGAAATGATAAAATTCAAAATTAAGGTG
DNA 2: CACCTTAATTTTGAATTTTATCATTTCTTA
B3: no binding (SlSWIBa).
